Measurements: article PMC2752052

Substrate: NC(=O)c1ccc[n+]([C@@H]2O[C@H](COP(=O)([O-])OP(=O)(O)OC[C@H]3O[C@@H](n4cnc5c(N)ncnc54)[C@H](O)[C@@H]3O)[C@@H](O)[C@H]2O)c1
Assay: purified protein
Format: biochemical, Homo sapiens

B1: Sirt1 (Homo sapiens) (protein)
chain: ADEAALALQPGGSPSAAGADREAASSPAGEPLRKRPRRDGPGLERSPGEPGGAAPEREVPAAARGCPGAAAAALWREAEAEAAAAGGEQEAQATAAAGEGDNGPGLQGPSREPPLADNLYDEDDDDEGEEEEEAAAAAIGYRDNLLFGDEIITNGFHSCESDEEDRASHASSSDWTPRPRIGPYTFVQQHLMIGTDPRTILKDLLPETIPPPELDDMTLWQIVINILSEPPKRKKRKDINTIEDAVKLLQECKKIIVLTGAGVSVSCGIPDFRSRDGIYARLAVDFPDLPDPQAMFDIEYFRKDPRPFFKFAKEIYPGQFQPSLCHKFIALSDKEGKLLRNYTQNIDTLEQVAGIQRIIQCHGSFATASCLICKYKVDCEAVRGDIFNQVVPRCPRCPADEPLAIMKPEIVFFGENLPEQFHRAMKYDKDEVDLLIVIGSSLKVRPVALIPSSIPHEVPQILINREPLPHLHFDVELLGDCDVIINELCHRLGGEYAKLCCNPVKLSEITEKPPRTQKELAYLSELPPTPLHVSEDSSSPERTSPPDSSVIVTLLDQAAKSNDDLDVSESKGCMEEKPQEVQTSRNVESIAEQMENPDLKNVGSSTGEKNERTSVAGTVRKCWPNRVAKEQISRRLDGNQYLFLPPNRYIFHGAEVYSDSEDDVLSSSSCGSNSDSGTCQSPSLEEPMEDESEIEEFYNGLEDEPDVPERAGGAGFGTDGDDQEAINEAISVKQEVTDMNYPSNKS
  Km: 171 ± 23 µM
